# In patent US20180155451A1 (published 2018):
# T1: FcγRIIb extracellular domain with C-terminal His tag (human, UniProt P31994 43-217)
# T1 construct: extracellular domain; also called 2b; FcgRIIb
# T1 sequence (looked up): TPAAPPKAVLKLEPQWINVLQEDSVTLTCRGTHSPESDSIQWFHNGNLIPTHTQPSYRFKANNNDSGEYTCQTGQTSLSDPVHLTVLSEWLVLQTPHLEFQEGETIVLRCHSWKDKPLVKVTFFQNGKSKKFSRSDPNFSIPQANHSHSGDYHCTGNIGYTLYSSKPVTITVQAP
# T2: FcγRIIb (human, UniProt P31994 43-217)
# T2 construct: extracellular domain; also called FcgRIIb; 2b
# T2 sequence (looked up): T1 sequence (looked up)
# B1: GpH7-A5/GpH7-B3 variant S324_20W/GpL16-k0 (antibody, human IgG1, kappa)
# heavy 1: not shown
# heavy 2: not shown
# light: DIVMTQSPLSLPVTPGEPASISCQASESLVHSNRNTYLHWYLQKPGQSPQLLIYKVSNRFSGVPDRFSGSGSGTDFTLKISRVEAEDVGVYYCSQNTHVPPTFGQGTKVEIERTVAAPSVFIFPPSDEQLKSGTASVVCLLNNFYPREAKVQWKVDNALQSGNSQESVTEQDSKDSTYSLSSTLTLSKADYEKHKVYACEVTHQGLSSPVTKSFNRGEC
# notes: He Ab: alteration in one H chain only; also called He Ab
# B2: GpH7-A5/GpH7-B3 variant S324_15Y/GpL16-k0 (antibody, human IgG1, kappa)
# heavy 1: not shown
# heavy 2: not shown
# light: B1 light
# notes: as for B1
# B3: GpH7-A5/GpH7-B3 variant Y300_08L/GpL16-k0 (antibody, human IgG1, kappa)
# heavy 1: not shown
# heavy 2: not shown
# light: B1 light
# notes: as for B1
# B4: GpH7-A5/GpH7-B3 variant S298_03V/GpL16-k0 (antibody, human IgG1, kappa)
# heavy 1: not shown
# heavy 2: not shown
# light: B1 light
# notes: as for B1
# B5: GpH7-A5/GpH7-B3 variant E333_02A/GpL16-k0 (antibody, human IgG1, kappa)
# heavy 1: not shown
# heavy 2: not shown
# light: B1 light
# notes: as for B1
# B6: GpH7-A5/GpH7-B3 variant Q295_10E/GpL16-k0 (antibody, human IgG1, kappa)
# heavy 1: not shown
# heavy 2: not shown
# light: B1 light
# notes: as for B1
# B7: GpH7-A5/GpH7-B3 variant A330_08L/GpL16-k0 (antibody, human IgG1, kappa)
# heavy 1: not shown
# heavy 2: not shown
# light: B1 light
# notes: as for B1
# B8: GpH7-A5/GpH7-B3 variant S324_01G/GpL16-k0 (antibody, human IgG1, kappa)
# heavy 1: not shown
# heavy 2: not shown
# light: B1 light
# notes: as for B1
# B9: GpH7-A5/GpH7-B3 variant A330_07I/GpL16-k0 (antibody, human IgG1, kappa)
# heavy 1: not shown
# heavy 2: not shown
# light: B1 light
# notes: as for B1
# B10: GpH7-A5/GpH7-B3 variant S324_14T/GpL16-k0 (antibody, human IgG1, kappa)
# heavy 1: not shown
# heavy 2: not shown
# light: B1 light
# notes: as for B1
# B11: GpH7-A5/GpH7-B3 variant S298_02A/GpL16-k0 (antibody, human IgG1, kappa)
# heavy 1: not shown
# heavy 2: not shown
# light: B1 light
# notes: as for B1
# B12: GpH7-A5/GpH7-B3 variant A330_16H/GpL16-k0 (antibody, human IgG1, kappa)
# heavy 1: not shown
# heavy 2: not shown
# light: B1 light
# notes: as for B1
# B13: GpH7-A5/GpH7-B3 variant E333_20W/GpL16-k0 (antibody, human IgG1, kappa)
# heavy 1: not shown
# heavy 2: not shown
# light: B1 light
# notes: as for B1
# B14: GpH7-A5/GpH7-B3 variant A330_20W/GpL16-k0 (antibody, human IgG1, kappa)
# heavy 1: not shown
# heavy 2: not shown
# light: B1 light
# notes: as for B1
# B15: GpH7-A5/GpH7-B3 variant S324_09D/GpL16-k0 (antibody, human IgG1, kappa)
# heavy 1: not shown
# heavy 2: not shown
# light: B1 light
# notes: as for B1
# B16: GpH7-A5/GpH7-B3 variant E333_13S/GpL16-k0 (antibody, human IgG1, kappa)
# heavy 1: not shown
# heavy 2: not shown
# light: B1 light
# notes: as for B1
# B17: GpH7-A5/GpH7-B3 variant A330_04F/GpL16-k0 (antibody, human IgG1, kappa)
# heavy 1: not shown
# heavy 2: not shown
# light: B1 light
# notes: as for B1
# B18: GpH7-A5/GpH7-B3 variant Q295_02A/GpL16-k0 (antibody, human IgG1, kappa)
# heavy 1: not shown
# heavy 2: not shown
# light: B1 light
# notes: as for B1
# B19: GpH7-A5/GpH7-B3 variant E333_16H/GpL16-k0 (antibody, human IgG1, kappa)
# heavy 1: not shown
# heavy 2: not shown
# light: B1 light
# notes: as for B1
# B20: GpH7-A5/GpH7-B3 variant D270_10E/GpL16-k0 (antibody, human IgG1, kappa)
# heavy 1: not shown
# heavy 2: not shown
# light: B1 light
# notes: as for B1
# B21: GpH7-A5/GpH7-B3 variant E333_09D/GpL16-k0 (antibody, human IgG1, kappa)
# heavy 1: not shown
# heavy 2: not shown
# light: B1 light
# notes: as for B1
# B22: GpH7-A5/GpH7-B3 variant L234_04F/GpL16-k0 (antibody, human IgG1, kappa)
# heavy 1: not shown
# heavy 2: not shown
# light: B1 light
# notes: as for B1
# B23: GpH7-A5/GpH7-B3 variant S298_14T/GpL16-k0 (antibody, human IgG1, kappa)
# heavy 1: not shown
# heavy 2: not shown
# light: B1 light
# notes: as for B1
# B24: GpH7-A5/GpH7-B3 variant A330_06M/GpL16-k0 (antibody, human IgG1, kappa)
# heavy 1: not shown
# heavy 2: not shown
# light: B1 light
# notes: as for B1
# B25: GpH7-A5/GpH7-B3 variant E333_04F/GpL16-k0 (antibody, human IgG1, kappa)
# heavy 1: not shown
# heavy 2: not shown
# light: B1 light
# notes: as for B1
# B26: GpH7-A5/GpH7-B3 variant A330_15Y/GpL16-k0 (antibody, human IgG1, kappa)
# heavy 1: not shown
# heavy 2: not shown
# light: B1 light
# notes: as for B1
# B27: GpH7-A5/GpH7-B3 variant I332_13S/GpL16-k0 (antibody, human IgG1, kappa)
# heavy 1: not shown
# heavy 2: not shown
# light: B1 light
# notes: as for B1
# B28: GpH7-A5/GpH7-B3 variant I332_19Q/GpL16-k0 (antibody, human IgG1, kappa)
# heavy 1: not shown
# heavy 2: not shown
# light: B1 light
# notes: as for B1
# B29: GpH7-A5/GpH7-B3 variant A330_03V/GpL16-k0 (antibody, human IgG1, kappa)
# heavy 1: not shown
# heavy 2: not shown
# light: B1 light
# notes: as for B1
# B30: GpH7-A5/GpH7-B3 variant S324_16H/GpL16-k0 (antibody, human IgG1, kappa)
# heavy 1: not shown
# heavy 2: not shown
# light: B1 light
# notes: as for B1
# B31: GpH7-A5/GpH7-B3 variant Q295_14T/GpL16-k0 (antibody, human IgG1, kappa)
# heavy 1: not shown
# heavy 2: not shown
# light: B1 light
# notes: as for B1
# B32: GpH7-A5/GpH7-B3 variant S324_02A/GpL16-k0 (antibody, human IgG1, kappa)
# heavy 1: not shown
# heavy 2: not shown
# light: B1 light
# notes: as for B1
# B33: GpH7-A5/GpH7-B3 variant I332_01G/GpL16-k0 (antibody, human IgG1, kappa)
# heavy 1: not shown
# heavy 2: not shown
# light: B1 light
# notes: as for B1
# B34: GpH7-A5/GpH7-B3 variant E333_03V/GpL16-k0 (antibody, human IgG1, kappa)
# heavy 1: not shown
# heavy 2: not shown
# light: B1 light
# notes: as for B1
# B35: GpH7-A5/GpH7-B3 variant I336_04F/GpL16-k0 (antibody, human IgG1, kappa)
# heavy 1: not shown
# heavy 2: not shown
# light: B1 light
# notes: heterodimerized IgG1, one H chain mutated; also called He Ab
# B36: GpH7-A5/GpH7-B3 variant I336_15Y/GpL16-k0 (antibody, human IgG1, kappa)
# heavy 1: not shown
# heavy 2: not shown
# light: B1 light
# notes: as for B35
# B37: GpH7-A5/GpH7-B3 variant I336_14T/GpL16-k0 (antibody, human IgG1, kappa)
# heavy 1: not shown
# heavy 2: not shown
# light: B1 light
# notes: as for B35
# B38: GpH7-A5/GpH7-B3 variant I336_12R/GpL16-k0 (antibody, human IgG1, kappa)
# heavy 1: not shown
# heavy 2: not shown
# light: B1 light
# notes: as for B35
# B39: GpH7-A5/GpH7-B3 variant I336_16H/GpL16-k0 (antibody, human IgG1, kappa)
# heavy 1: not shown
# heavy 2: not shown
# light: B1 light
# notes: as for B35
# B40: GpH7-A5/GpH7-B3 variant I336_10E/GpL16-k0 (antibody, human IgG1, kappa)
# heavy 1: not shown
# heavy 2: not shown
# light: B1 light
# notes: as for B35
# B41: GpH7-A5/GpH7-B3 variant I336_09D/GpL16-k0 (antibody, human IgG1, kappa)
# heavy 1: not shown
# heavy 2: not shown
# light: B1 light
# notes: as for B35
# B42: GpH7-A5/GpH7-B3 variant I336_11K/GpL16-k0 (antibody, human IgG1, kappa)
# heavy 1: not shown
# heavy 2: not shown
# light: B1 light
# notes: as for B35
# B43: GpH7-A5/GpH7-B3 variant I336_13S/GpL16-k0 (antibody, human IgG1, kappa)
# heavy 1: not shown
# heavy 2: not shown
# light: B1 light
# notes: as for B35
# Target: T3, FcγRIIIa extracellular domain with C-terminal His tag (human, UniProt P08637 17-208)
# T3 construct: extracellular domain; also called 3a; FcgRIIIa
# Experiment: SPR, relative to GpH7-A5/GpH7-B3/GpL16-k0
# Experimental: (§1) The heterodimerized antibodies He Abs in which one of the H chains was introduced with an alteration were assayed for their binding activities to each activating FcγR and inhibitory FcγR according to the method described in Example 4. […] The activating FcγRs in FIGS. 26, 27, 28, and 29 are FcγRIa, FcγRIIa (R), FcγRIIa (H), and FcγRIIIa, respectively.
# (§2) Analysis of interaction between objective antibody and the FcγR was carried out using Biacore T100 (GE Healthcare). HBS-EP+ (GE Healthcare) was used as the running buffer, and the measurement temperature was set to 25° C. Chips produced by immobilizing the antigen peptide by the amine coupling method to a Series S Sencor Chip CM5 (GE Healthcare), or alternatively, chips produced by allowing preliminarily biotinylated antigen peptides to interact with and immobilize onto a Series S Sensor Chip SA (certified) (GE Healthcare) were used. Antibodies of interest were captured onto an antigen peptide-immobilized chip, and allowed to interact to each FcγR diluted with running buffer. To regenerate and repeatedly use the chip, the antibodies captured on the chip were washed off by reacting 10 mM glycine-HCl, pH 1.5.
# T3 sequence (P08637 17-208): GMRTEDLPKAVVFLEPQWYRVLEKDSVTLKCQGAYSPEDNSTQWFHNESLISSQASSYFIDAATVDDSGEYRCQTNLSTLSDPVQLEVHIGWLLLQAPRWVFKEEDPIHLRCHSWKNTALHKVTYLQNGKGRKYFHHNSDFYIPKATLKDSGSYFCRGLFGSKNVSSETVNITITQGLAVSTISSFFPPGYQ
row,Binder,He/Con_3a [control=100]
1,B1,102
2,B2,101
3,B3,105
4,B4,109
5,B5,105
6,B6,100
7,B7,124
8,B8,105
9,B9,103
10,B10,103
11,B11,160
12,B12,104
13,B13,101
14,B14,104
15,B15,101
16,B16,103
17,B17,147

row,Binder,He/Con_3a [control=100]
1,B18,106
2,B19,103
3,B20,123
4,B21,112
5,B22,118
6,B23,113
7,B24,142
8,B25,101
9,B26,125
10,B27,104
11,B28,110
12,B29,101
13,B30,104
14,B31,115
15,B32,104
16,B33,111
17,B34,103

# Target: T1, FcγRIIb extracellular domain with …
# Experiment: SPR, relative to GpH7-A5/GpH7-B3/GpL16-k0
# Experimental: as §1, §2
row,Binder,He/Con_2b [control=100]
1,B1,87.5
2,B2,88.2
3,B3,73.6
4,B4,64.5
5,B5,83.8
6,B6,94.8
7,B7,70.5
8,B8,81.1
9,B9,67.1
10,B10,88.4
11,B11,73.4
12,B12,87.6
13,B13,89.5
14,B14,76.1
15,B15,85.8
16,B16,81.8
17,B17,92.8

row,Binder,He/Con_2b [control=100]
1,B18,79.7
2,B19,83.3
3,B20,76.5
4,B21,94.3
5,B22,99.8
6,B23,77.9
7,B24,80.5
8,B25,94.6
9,B26,95
10,B27,98.4
11,B28,94.3
12,B29,52.4
13,B30,83.5
14,B31,66.8
15,B32,78.3
16,B33,87.1
17,B34,93.2

# Target: T4, FcγRIa (human, UniProt P12314 16-292)
# T4 construct: extracellular domain; also called FcgRI; FcgRIa
# Experiment: SPR (Biacore), relative to GpH7-A5/GpH7-B3/GpL16-k0 = 100
# Experimental: as §1, §2
# T4 sequence (P12314 16-292): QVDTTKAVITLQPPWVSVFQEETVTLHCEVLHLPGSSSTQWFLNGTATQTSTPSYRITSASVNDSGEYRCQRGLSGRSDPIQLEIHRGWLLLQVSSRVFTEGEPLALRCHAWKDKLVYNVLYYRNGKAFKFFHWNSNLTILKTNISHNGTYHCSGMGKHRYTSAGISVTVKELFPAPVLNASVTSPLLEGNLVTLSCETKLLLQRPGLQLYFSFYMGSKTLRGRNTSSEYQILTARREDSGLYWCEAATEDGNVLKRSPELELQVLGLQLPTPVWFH
row,Binder,He/Con_1a (Ia binding)
1,B35,106 relative (control = 100)
2,B36,103 relative (control = 100)
3,B37,104 relative (control = 100)
4,B38,102 relative (control = 100)
5,B39,101 relative (control = 100)
6,B40,108 relative (control = 100)
7,B41,104 relative (control = 100)
8,B42,105 relative (control = 100)
9,B43,102 relative (control = 100)

# Target: T2, FcγRIIb
# Experiment: as above
# Experimental: as §1, §2
row,Binder,He/Con_2b (IIb binding)
1,B35,91.2 relative (control = 100)
2,B36,68.2 relative (control = 100)
3,B37,89.5 relative (control = 100)
4,B38,92.1 relative (control = 100)
5,B39,85.8 relative (control = 100)
6,B40,89.8 relative (control = 100)
7,B41,92.1 relative (control = 100)
8,B42,90.3 relative (control = 100)
9,B43,83.7 relative (control = 100)
